According to patent publication US10273305B2, “Bispecific CXCR4-CD4 polypeptides with potent anti-HIV activity” (Ablynx N.V., priority 2015, dated 2019):

Columns and labels:
[1] = test system: dual-tropic R5/X4 HIV-1 HE; experiment: HIV-1 HE infection of PBMCs, p24; type: cell-based
R5 SM145 = experiment: TZM-bl luciferase assay, SM145; type: cell-based, HIV-1; conditions: read-out: IC50 TZM-bl R5 SM145 n = 2
R5 DJ259 = experiment: TZM-bl luciferase assay, DJ259; type: cell-based, HIV-1; conditions: read-out: IC50 TZM-bl R5 DJ259 n = 2
X4 HIV-1 NL4.3 WT = experiment: TZM-bl luciferase assay, NL4.3 WT; type: cell-based
R5 HIV-1 BaL virus = experiment: TZM-bl luciferase assay, BaL; type: cell-based; conditions: read-out: IC50 R5 HIV-1 BaL virus in TZM-bl cells
[2] = test system: dual-tropic R5/X4 HIV-1 HE; experiment: TZM-bl luciferase assay, HE; type: cell-based
[3] = test system: dual-tropic R5/X4 HIV-2 ROD; experiment: TZM-bl luciferase assay, HIV-2 ROD; type: cell-based
CD4 [4] = target: T1, CD4 (Homo sapiens, UniProt P01730); experiment: FACS binding of CD4 Nanobody 3F11 to human cells; conditions: CD8+ T cells isolated from human PBMCs
Protocol: The EC50 values results are depicted in Table 2.4. […] To confirm the specificity of the anti-CD4 Nanobody, binding of 03F11 was also assessed to cytotoxic CD8^+ T cells isolated from human PBMCs using the CD8 T Cell Isolation Kit (Miltenyi Biotech, Cat. 130-096-495), resulting in 94% purity of CD8^+ cells.

CD4 [5] = target: T1, CD4; experiment: Flow cytometry binding of purified CD4 Nanobodies to Jurkat and THP-1 cells; conditions: 100 nM Nanobody
Protocol: Murine Ba/F3 myeloid cells were used as negative control cells. Purified Nanobodies (100 nM) were allowed to bind to 10^5 cells for 30 minutes at 4° C. in a final volume of 100 μl of 10% FBS (Invitrogen, Cat 10270-106) in PBS (Invitrogen #14190). Bound Nanobodies were detected with mouse anti-myc antibody (Serotec, Cat#MCA2200) followed by goat anti-mouse-PE antibody (Jackson #115-115-164). Dead cells percentage population was determined by staining the cells with TOPRO3 (Molecular probes T3605). Using a BD FACS Array Bioanalyzer system, a PE filter 585/42 and a Topro filter 661/16, twenty thousand events were acquired. TOPRO3+ cells were excluded, and the mean channel fluorescence (MCF) was calculated. Expression of CD4 in Jurkat and THP-1 cells was confirmed by using 10 μg/ml of an anti-CD4 monoclonal antibody (Diaclone, clone B-A1 cat#854.030.000). Staining of the cells with anti-myc and/or the goat anti mouse-PE antibodies antibody was performed as negative controls.

[6] = target: interaction of CD4 with the viral gp120 protein (Homo sapiens, UniProt P01730); experiment: ELISA-based competition of CD4-gp120 interaction; type: binding; conditions: 500 nM Nanobody; gp120 HIV-1 IIIB
Protocol: Besides its role on T-cells, CD4 also serves as primary receptor for HIV entry. Therefore purified CD4 Nanobodies were analysed for the capacity to block the interaction of CD4 with the viral gp120 protein. Monovalent His-tagged Nanobodies were purified from periplasmic extracts by affinity and desalting chromatography and used in an ELISA-based competition setup. In short, 1 μg/ml of gp120 HIV-1 IIIB (Immunodiagnostic) was captured by 20 μg/ml of sheep anti-gp120 antibody D7324 (Aalto Bio Reagents) previously coated in 96 well Maxisorp microtiter plates (Nunc) and blocked with 1% casein in PBS. In parallel, 0.5 μg/ml of biotinylated CD4 was incubated with 500 nM of the different purified Nanobodies in 100 μl 0.1% Casein/PBS. After 1 hour, the biotinylated CD4-Nanobody pre-mixes were incubated 1 hour with the captured gp120. Bound biotinylated CD4 was detected using HRP-conjugated Extravidin (Sigma E2886). A blocking mouse anti-CD4 IgG2a antibody (Diaclone, clone B-A1 cat#854.030.000) was used as positive control. Blocking activity was determined as loss of O.D. signal, as compared to wells where no Nanobody was added.

HIV-1 X4 NL4.3 strain = experiment: HIV-1 NL4.3 infection of PHA-stimulated PBMCs, p24 Ag ELISA; type: cell-based
CXCR4 [7] = target: T2, CXCR4 (Homo sapiens, UniProt P61073); experiment: Inhibition of SDF-1 mediated chemotaxis; type: cell-based; conditions: average of 3
T2 sequence (P61073 whole entry): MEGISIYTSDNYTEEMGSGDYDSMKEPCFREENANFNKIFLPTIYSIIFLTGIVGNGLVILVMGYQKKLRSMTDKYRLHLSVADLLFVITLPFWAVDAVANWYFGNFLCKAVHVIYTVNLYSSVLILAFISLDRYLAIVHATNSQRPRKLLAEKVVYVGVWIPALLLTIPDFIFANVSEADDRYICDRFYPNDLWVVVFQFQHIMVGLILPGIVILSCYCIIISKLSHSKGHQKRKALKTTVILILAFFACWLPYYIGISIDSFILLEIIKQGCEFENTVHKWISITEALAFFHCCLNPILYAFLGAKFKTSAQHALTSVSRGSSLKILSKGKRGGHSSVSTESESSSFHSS
Protocol: As chemoattractant a concentration of 750 pM SDF-1α (R&D Systems) was used on 100,000 cells/well for the Jurkat cell line, and 500,000 cells/well for the MOLM-13 cell line. SDF-1α and serially diluted Nanobody constructs were added to the bottom of a small chemotaxis plate (Neuprobe 106-5) in a total volume of 29 μl. A chemotaxis filter membrane (ChemoTx® Disposibla, pore size 5 μm) was placed on top of the wells, ensuring that the membrane was in contact with the solution in the wells below. A Nanobody dilution (10 μl at 5× the serially diluted final concentration as below the membrane in each well) was added on top of the membrane, followed by 40 μl of cell suspension. The plates were incubated for 3 hours at 37° C. in a humidified incubator (5% CO2). After incubation, the filters were carefully removed and the cells in the well below were resuspended in the existing solution. The complete cell suspension was transferred to the corresponding wells of white polystyrene Costar plates. After this, 30 μl of Cell Titer Glo reagent (Promega G7571) was added to each well, followed by a 10 minute incubation, with shaking in the dark. Luminescence was measured (1 sec/well) using an Envision 2103 Multilabel Reader with emission filter 700 (Perkin Elmer). […]

CXCR4 [8] = target: T2, CXCR4; experiment: CXCL12-AF647 binding inhibition on SupT1 cells by flow cytometry; conditions: T-cells (SUPT-1)
CXCR4 [9] = target: T2, CXCR4; experiment: Inhibition of SDF-1 induced Ca2+ signaling in U87.CD4.CXCR4 cells (FLIPR); type: cell-based
HUT-78/HIV-1 NL4.3 = experiment: HIV-1-mediated cell-cell fusion, HUT-78/NL4.3 with SupT1 cells; conditions: read-out: IC50 cell-cell fusion
cynomolgus CD4 = cynomolgus CD4 (Macaca fascicularis, UniProt P79185); experiment: Binding of 3F11 to cynomolgus CD4+ HSC-F T cells, flow cytometry; conditions: HSC-F T cell line
cynomolgus CD4, sequence (P79185 26-458): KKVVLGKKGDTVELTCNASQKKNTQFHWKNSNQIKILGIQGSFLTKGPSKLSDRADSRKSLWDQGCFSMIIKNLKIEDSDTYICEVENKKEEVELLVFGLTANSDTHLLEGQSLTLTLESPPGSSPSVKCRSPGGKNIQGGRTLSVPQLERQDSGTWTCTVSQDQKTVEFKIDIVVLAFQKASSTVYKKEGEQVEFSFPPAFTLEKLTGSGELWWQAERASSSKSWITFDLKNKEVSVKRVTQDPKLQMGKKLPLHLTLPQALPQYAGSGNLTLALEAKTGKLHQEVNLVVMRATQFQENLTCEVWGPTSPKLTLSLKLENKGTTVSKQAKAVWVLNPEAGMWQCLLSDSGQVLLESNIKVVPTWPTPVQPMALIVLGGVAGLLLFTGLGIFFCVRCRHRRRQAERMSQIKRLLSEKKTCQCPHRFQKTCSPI

| Molecule | IC50 dual-tropic R5/X4 HIV-1 HE in PBMCs [1] | IC50 (R5 SM145) | IC50 (R5 DJ259) | IC50 X4 HIV-1 NL4.3 in TZM-bl cells (X4 HIV-1 NL4.3 WT) | IC50 (R5 HIV-1 BaL virus) | activity against R5/X4 HIV-1 HE in TZM-bl cells [2] | activity against R5/X4 HIV-2 ROD in TZM-bl cells [3] | binding to cytotoxic CD8+ T cells (CD4 [4]) | binding to CD4 expressed on a cell surface (CD4 [5]) | blocking of in vitro interaction of CD4 with gp120 [6] | IC50 HIV-1 NL4.3 in PBMC (HIV-1 X4 NL4.3 strain) | Inhibition of SDF-1a-mediated chemotaxis IC50 MOLM-13 cells (CXCR4 [7]) | IC50 of blocking CXCL12AF647 binding to CXCR4 (CXCR4 [8]) | IC50 of CXCL-12-induced Ca2+-signaling inhibition (CXCR4 [9]) | IC50 (HUT-78/HIV-1 NL4.3) | binding to cynomolgus CD4 (cynomolgus CD4) |
| --- | --- | --- | --- | --- | --- | --- | --- | --- | --- | --- | --- | --- | --- | --- | --- | --- |
| maraviroc [AMD14031] | never showed any significant anti-HIV-1 HE activity | 2.82 µM | 7.54 µM | did not block | 4.2 µM | did not block | did not block |  |  |  |  |  |  |  |  |  |
| 3F11: anti-CD4 Nanobody, SEQ ID NO: 20 (protein, Nanobody Sequence) VHH: EVQLVESGGGSVQPGGSLTLSCGTSGRTFNVMGWFRQAPGKEREFVAAVRWSSTGIYYTQYADSVKSRFTISRDNAKNTVYLEMNSLKPEDTAVYYCAADTYNSNPARWDGYDFRGQGTQVTVSS | not active |  |  |  |  |  |  | No binding | highest binding signal on THP-1 cells | block | weakly active | did not have any effect on SDF-1 function | did not interfere | no CXCL-12-induced Ca^2+-signaling inhibition | 2.7 µM | cross-reactive to cynomolgus CD4 |
